The experiment concerns the target human coagulation Factor X (human) (UniProt P00742). In words: cell-based or functional assay.
Sequence of UniProt P00742 (P00742 41-488): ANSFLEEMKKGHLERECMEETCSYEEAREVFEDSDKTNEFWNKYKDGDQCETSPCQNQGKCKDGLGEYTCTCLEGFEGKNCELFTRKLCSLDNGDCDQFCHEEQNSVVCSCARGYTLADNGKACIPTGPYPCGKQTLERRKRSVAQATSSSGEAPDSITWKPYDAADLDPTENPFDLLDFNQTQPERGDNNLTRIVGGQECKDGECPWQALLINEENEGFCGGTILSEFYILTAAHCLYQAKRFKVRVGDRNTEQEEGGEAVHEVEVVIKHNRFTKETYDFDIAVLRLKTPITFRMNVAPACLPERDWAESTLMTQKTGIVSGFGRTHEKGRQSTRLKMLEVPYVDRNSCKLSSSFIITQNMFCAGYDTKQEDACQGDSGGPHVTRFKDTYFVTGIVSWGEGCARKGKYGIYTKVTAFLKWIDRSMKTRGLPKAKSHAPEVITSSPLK

For the substance “human furin (from UniProt P09958 108-794) (enzyme)”, the estimated furin concentration in the cell culture medium resulting in equal or higher 90% fully processed FX of total FX (Emax model on Western blot densitometry and furin activity assay) was > 57 U/mL.

The values above are taken from US20160046957A1.
